From US20090305946A1 come the findings set out here.

For test [1], the target named is full-length human Presenilin-1 (human) (UniProt P49768). Kind of test: cell-based or functional assay.
Test [2] shares this target. Kind of test: [^35S]-GTPγS labelling of extracts of co-transfected ES cells, immunoprecipitation with anti-PS-1.
The target of test [3] is full-length human Presenilin-2 (human) (UniProt P49810). Description: ^35S-GTPγS incorporation in extracts of co-transfected ES cells, immunoprecipitation with anti-PS MAb, scintillation counting.
The target in test [4] is full-length human Presenilin-1 (human) (UniProt P49768). Kind of test: ^35S-GTPγS incorporation in extracts of co-transfected ES cells, immunoprecipitation with anti-PS-1 loop MAb, scintillation counting.
Test [5] addresses endogenous rat PS proteins in rat hippocampal membranes. Description: cell-based or functional assay.

Chain of human G-protein GαoA (P09471 2-354): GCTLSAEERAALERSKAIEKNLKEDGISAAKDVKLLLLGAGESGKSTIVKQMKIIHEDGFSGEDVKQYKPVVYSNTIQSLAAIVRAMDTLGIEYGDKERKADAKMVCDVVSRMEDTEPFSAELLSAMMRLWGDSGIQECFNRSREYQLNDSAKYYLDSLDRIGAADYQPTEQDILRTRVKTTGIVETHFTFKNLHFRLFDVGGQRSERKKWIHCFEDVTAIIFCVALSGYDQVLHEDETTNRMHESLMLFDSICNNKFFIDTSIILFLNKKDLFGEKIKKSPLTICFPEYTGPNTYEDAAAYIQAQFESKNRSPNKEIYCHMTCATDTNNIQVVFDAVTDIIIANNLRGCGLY
Chain of soluble ectodomain of human β-APP, baculovirus-derived (P05067 18-701): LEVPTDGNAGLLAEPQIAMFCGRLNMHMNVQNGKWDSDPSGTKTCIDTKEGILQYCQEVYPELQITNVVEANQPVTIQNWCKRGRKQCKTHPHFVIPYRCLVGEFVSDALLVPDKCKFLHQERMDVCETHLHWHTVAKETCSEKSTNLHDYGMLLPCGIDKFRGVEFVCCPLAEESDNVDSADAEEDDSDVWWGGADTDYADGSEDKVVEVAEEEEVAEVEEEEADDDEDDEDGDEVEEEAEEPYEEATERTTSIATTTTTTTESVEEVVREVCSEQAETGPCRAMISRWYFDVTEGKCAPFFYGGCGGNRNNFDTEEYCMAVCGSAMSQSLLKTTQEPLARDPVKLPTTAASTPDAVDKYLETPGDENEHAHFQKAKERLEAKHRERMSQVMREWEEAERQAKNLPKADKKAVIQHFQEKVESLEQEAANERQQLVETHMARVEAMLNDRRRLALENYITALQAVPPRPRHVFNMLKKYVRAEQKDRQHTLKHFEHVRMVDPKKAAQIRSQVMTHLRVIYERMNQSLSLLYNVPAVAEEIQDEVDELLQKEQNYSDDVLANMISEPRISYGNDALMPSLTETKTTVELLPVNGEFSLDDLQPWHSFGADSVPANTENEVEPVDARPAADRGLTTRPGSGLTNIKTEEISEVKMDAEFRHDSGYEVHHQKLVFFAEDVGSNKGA

Take “full-length human β-amyloid precursor protein (from UniProt P05067 18-770) (ligand)”: in test [1], the ^35S-GTPγS incorporation (Gαo immunoprecipitated with K-20), high density co-culture (% increase over basal) was 200; the ^35S-GTPγS incorporation (Gαo immunoprecipitated with K-20), high density co-culture with PTx (% lower than basal) stood at 38; the ^35S-GTPγS incorporation (Gαo immunoprecipitated with K-20), low density co-culture (% increase over basal) stood at 33.
“human G-protein GαoA (from UniProt P09471 2-354)” came in with a fold increase in ^35S-incorporation immunoprecipitated with antibody to PS-1 in test [2] of 8 fold. In test [3], this substance came in with a % increase in ^35S-GTPγS binding over untransfected control of 700%. Besides, the ^35S-GTPγS incorporation, % of untransfected control in test [4] turned out to be 700%.
In test [5], “soluble ectodomain of human β-APP, baculovirus-derived (from UniProt P05067 18-701) (ligand)” showed a ^35S-GTPγS incorporation in solubilized rat hippocampal membranes of 600 % increase and a ^35S-GTPγS incorporation in solubilized rat hippocampal membranes (% greater than untreated) of 100. In test [1], this substance had a ^35S-GTPγS incorporation (Gαo) in PS-1-only APP-/- fibroblasts of 500 % increase.
